Residue numbers refer to the chain shown, from its start.
Legend:
[1] = target: T1, StXPB;StBax1ΔC (Sulfurisphaera tokodaii;Sulfurisphaera …, UniProt Q970I2;Q970I1 2-439;2-373, |); experiment: crystal structure 3.55 Å; 10 mM MgCl2, MES pH 5.3, MPD; ATP-free; EMSA: 25 mM Tris-Cl pH 7.5, 100 mM NaCl, 5% glycerol, 1 mM DTT, room temperature 40 min; 0.8 uM forked DNA or 0.3 uM bubble DNA; 4% TBE native gel, ethidium bromide; conditions: protein: recombinant;recombinant; tags: N-terminal His8 (PreScission; removed);none stated (pET15b; copurified with His8-XPB); copies: 1;1; 24 bp with 6 nt unpaired region; 6 bp short arm unwound in crystal
T1 sequence 1: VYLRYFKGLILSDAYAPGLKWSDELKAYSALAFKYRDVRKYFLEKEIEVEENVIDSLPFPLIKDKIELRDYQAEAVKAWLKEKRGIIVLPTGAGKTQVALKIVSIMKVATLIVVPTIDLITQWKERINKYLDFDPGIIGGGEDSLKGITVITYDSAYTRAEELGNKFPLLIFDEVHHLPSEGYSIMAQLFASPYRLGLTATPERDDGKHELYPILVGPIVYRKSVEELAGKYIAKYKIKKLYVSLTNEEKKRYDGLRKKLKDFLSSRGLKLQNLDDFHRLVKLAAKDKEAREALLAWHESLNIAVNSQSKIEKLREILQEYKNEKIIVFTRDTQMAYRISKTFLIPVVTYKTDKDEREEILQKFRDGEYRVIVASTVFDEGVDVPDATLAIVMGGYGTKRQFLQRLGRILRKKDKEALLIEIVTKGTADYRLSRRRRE
T1 sequence 2: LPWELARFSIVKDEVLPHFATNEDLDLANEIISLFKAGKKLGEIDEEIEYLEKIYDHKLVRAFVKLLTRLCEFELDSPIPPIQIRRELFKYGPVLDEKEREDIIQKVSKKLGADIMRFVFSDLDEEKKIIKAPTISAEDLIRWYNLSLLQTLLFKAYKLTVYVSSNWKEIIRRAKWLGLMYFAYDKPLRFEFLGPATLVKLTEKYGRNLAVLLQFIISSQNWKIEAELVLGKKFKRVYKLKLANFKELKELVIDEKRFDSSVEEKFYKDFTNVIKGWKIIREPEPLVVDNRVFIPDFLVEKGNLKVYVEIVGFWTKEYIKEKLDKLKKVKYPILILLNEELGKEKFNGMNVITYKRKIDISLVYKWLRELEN

[2] = target: human XPB;human p52;human p8;human XPA (human;human;human;human, UniProt P19447;Q92759;Q6ZYL4;P23025 1-782;1-462;1-71;1-273, |||); experiment: EMSA; stable complex; EMSA: 25 mM Tris-Cl pH 7.5, 100 mM NaCl, 5% glycerol, 1 mM DTT, room temperature 40 min; 0.8 uM forked DNA or 0.3 uM bubble DNA; 4% TBE native gel, ethidium bromide; conditions: protein: recombinant;recombinant;recombinant;recombinant; tags: N-terminal His6 (PreScission; removed);;;N-terminal His6-SUMO (removed); copies: 1;1;1;1; fork: 22 bp duplex, 10 nt arms
[3] = target: T2, StXPB;StBax1 (Sulfurisphaera tokodaii;Sulfurisphaera …, UniProt Q970I2;Q970I1 2-439;1-481, |); experiment: EMSA; EMSA: 25 mM Tris-Cl pH 7.5, 100 mM NaCl, 5% glycerol, 1 mM DTT, room temperature 40 min; 0.8 uM forked DNA or 0.3 uM bubble DNA; 4% TBE native gel, ethidium bromide; conditions: protein: recombinant;recombinant; tags: N-terminal His8 (PreScission; removed);; copies: 1;1; fork: 22 bp duplex, 10 nt arms
T2 sequence 1: T1 sequence 1
T2 sequence 2: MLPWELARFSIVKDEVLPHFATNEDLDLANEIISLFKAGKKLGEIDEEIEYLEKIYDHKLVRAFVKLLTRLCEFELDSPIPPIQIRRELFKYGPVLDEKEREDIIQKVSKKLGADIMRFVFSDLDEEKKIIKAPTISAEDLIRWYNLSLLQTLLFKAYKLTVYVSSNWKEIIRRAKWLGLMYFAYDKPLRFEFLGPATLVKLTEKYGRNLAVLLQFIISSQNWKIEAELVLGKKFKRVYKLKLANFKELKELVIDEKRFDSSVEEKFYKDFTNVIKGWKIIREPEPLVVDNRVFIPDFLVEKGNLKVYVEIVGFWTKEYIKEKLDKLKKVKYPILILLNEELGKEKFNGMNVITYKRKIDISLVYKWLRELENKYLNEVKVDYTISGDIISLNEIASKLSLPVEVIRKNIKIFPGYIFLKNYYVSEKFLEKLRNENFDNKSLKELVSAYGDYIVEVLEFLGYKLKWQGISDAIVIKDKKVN

[4] = target: T1, StXPB;StBax1ΔC; experiment: as above; conditions: protein: recombinant;recombinant; tags: N-terminal His8 (PreScission; removed);none stated (pET15b; copurified with His8-XPB); copies: 1;1; fork: 22 bp duplex, 10 nt arms
[5] = target: T3, StXPB F278A (Sulfurisphaera tokodaii, UniProt Q970I2 2-439, F278A); experiment: EMSA; no noticeable effect versus WT; EMSA: 25 mM Tris-Cl pH 7.5, 100 mM NaCl, 5% glycerol, 1 mM DTT, room temperature 40 min; 0.8 uM forked DNA or 0.3 uM bubble DNA; 4% TBE native gel, ethidium bromide; conditions: protein: recombinant; tags: N-terminal His8 (removed); 32 nt strands, blunt, internal 5 nt T:T mismatch bubble
T3 sequence: T1 sequence 1 with F277A

Sequence of human XPB;human p52;human p8;human XPA (P19447 whole entry, chain 1 of 4): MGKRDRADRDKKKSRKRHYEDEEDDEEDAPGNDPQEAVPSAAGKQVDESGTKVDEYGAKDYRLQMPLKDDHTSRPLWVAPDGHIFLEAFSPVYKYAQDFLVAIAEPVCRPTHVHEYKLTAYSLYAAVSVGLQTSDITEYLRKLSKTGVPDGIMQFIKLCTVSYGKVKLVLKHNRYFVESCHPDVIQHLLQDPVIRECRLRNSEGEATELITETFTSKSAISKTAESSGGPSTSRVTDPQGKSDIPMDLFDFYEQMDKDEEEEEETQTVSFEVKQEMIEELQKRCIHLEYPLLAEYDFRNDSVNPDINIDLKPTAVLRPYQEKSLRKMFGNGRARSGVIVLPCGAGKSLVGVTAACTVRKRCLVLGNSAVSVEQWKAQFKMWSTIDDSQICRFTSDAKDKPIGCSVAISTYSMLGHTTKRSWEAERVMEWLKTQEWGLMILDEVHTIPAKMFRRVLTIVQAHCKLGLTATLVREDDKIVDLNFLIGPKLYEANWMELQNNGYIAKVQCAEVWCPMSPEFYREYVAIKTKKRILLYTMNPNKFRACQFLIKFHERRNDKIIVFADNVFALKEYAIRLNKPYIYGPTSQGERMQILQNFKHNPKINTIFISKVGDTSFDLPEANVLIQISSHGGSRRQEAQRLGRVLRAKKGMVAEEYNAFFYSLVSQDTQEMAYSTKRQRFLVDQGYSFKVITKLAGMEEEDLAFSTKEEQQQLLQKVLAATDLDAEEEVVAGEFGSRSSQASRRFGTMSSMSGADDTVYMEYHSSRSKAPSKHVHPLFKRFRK
Sequence of human XPB;human p52;human p8;human XPA (Q92759 whole entry, chain 2 of 4): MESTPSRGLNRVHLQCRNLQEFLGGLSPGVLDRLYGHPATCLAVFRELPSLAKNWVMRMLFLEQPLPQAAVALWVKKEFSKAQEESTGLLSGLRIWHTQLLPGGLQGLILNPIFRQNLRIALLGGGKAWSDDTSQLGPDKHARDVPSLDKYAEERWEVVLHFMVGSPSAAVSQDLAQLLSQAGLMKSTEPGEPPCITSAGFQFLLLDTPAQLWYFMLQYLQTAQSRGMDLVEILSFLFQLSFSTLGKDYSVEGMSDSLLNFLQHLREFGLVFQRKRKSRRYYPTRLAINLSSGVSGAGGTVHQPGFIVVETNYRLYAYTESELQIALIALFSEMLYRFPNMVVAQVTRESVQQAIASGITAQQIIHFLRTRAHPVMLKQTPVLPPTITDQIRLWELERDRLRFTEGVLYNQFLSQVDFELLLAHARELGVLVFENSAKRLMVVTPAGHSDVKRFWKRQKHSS
Sequence of human XPB;human p52;human p8;human XPA (Q6ZYL4 whole entry, chain 3 of 4): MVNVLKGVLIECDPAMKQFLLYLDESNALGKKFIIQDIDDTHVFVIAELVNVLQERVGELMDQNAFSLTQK
Sequence of human XPB;human p52;human p8;human XPA (P23025 whole entry, chain 4 of 4): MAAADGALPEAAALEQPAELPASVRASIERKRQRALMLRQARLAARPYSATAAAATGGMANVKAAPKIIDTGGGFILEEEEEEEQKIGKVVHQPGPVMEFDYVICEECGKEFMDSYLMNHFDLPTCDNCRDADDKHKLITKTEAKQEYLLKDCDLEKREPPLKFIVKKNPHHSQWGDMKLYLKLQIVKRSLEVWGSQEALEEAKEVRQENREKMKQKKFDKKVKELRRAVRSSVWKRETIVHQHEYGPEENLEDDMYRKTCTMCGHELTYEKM

B1: bubble-6 DNA (crystal) (dsDNA)
DNA 1: TTGACTCAACATCCTTTGCTACAA
DNA 2: ATTGTAGGTTTCCATGTTGAGTCA
- binding result [1]: binds

B2: forked DNA (dsDNA)
DNA 1: TAGTCACAGCTGATTGCGCTCTGCTCCATAGT
DNA 2: TGATACTTCGAGAGCGCAATCAGCTGTGACTA
- binding result [2]: binds
- binding result [3]: binds
- binding result [4]: binds

B3: bubble-5 DNA (dsDNA)
DNA 1: B2 DNA 1 with G16T, C17T, G18T
DNA 2: ACTATGGAGCAGAGTTTTTTCAGCTGTGACTA
- binding result [5]: binds

— publication PMC7672443, “Structural basis of the XPB helicase–Bax1 nuclease complex interacting with the repair bubble DNA” (Nucleic Acids Research, 2020)
